From article PMC6239862 come the findings set out here.

For this experiment, the target named is Q-PAS1 fragment of PpsR2 (Q-linker and PAS1 domain) fused with mRuby2 (Rhodopseudomonas palustris). Description: cross-linking.

For “Q-PAS1 fragment of PpsR2 (Q-linker and PAS1 domain) fused with mRuby2 (domain or fragment)”, the stoichiometry N turned out to be 2.
